Data on two substances can be found in paper PMC11499270 (Nature, 2024).

For series [1] the following is noted: pigs; previously observed; cited from earlier work.
Series [2] concerns the target human insulin receptor A (human) (UniProt P06213). As to the kind of experiment: radioligand binding.

As for insulin detemir, the “half-life after s.c. administration” value in series [1] was 6.5 h.

“NNC2215 (from UniProt P01308 90-110; P01308 25-53) (ligand)” came in with a fold increase in hIR-A affinity, 20 vs 0 mM glucose, without albumin in series [2] of 6.8 fold.
